Patent US20110123544A1 (published 2011)

T1: recombinant human interleukin 12 (p40/p35 heterodimer) (human, UniProt P29460 23-328; P29459 23-219)
T1 chain 1: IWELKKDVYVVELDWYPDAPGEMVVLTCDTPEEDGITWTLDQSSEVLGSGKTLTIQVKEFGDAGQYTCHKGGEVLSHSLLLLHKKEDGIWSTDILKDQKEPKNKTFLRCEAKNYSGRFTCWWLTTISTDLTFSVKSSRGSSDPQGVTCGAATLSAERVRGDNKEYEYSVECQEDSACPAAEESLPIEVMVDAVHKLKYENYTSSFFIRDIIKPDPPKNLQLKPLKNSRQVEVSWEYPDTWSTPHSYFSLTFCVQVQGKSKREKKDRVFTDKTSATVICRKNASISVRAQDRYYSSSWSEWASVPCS
T1 chain 2: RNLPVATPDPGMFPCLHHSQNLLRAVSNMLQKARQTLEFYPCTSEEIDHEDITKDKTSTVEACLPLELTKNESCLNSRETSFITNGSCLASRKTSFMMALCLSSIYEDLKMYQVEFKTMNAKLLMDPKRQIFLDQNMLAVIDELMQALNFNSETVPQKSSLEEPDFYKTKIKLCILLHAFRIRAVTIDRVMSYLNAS


Target: T1, recombinant human interleukin 12 …
Assay: BIAcore

Binder	koff [s⁻¹]
TIRYDGSNKYYADSVKG [Y61 H50 T]	0.000205
FISYDGSNKYYADSVKG [Y61 H52 S]	0.000292
FIRYSGSNKYYADSVKG [Y61 H53 S]	0.000368
FIRYVGSNKYYADSVKG [Y61 H53 V]	0.00044
FITYDGSNKYYADSVKG [Y61 H52 T]	0.000374
FIKYDGSNKYYADSVKG [Y61 H52 K]	0.000262
KIRYDGSNKYYADSVKG [Y61 H50 K]	0.000612
FIRYLGSNKYYADSVKG [Y61 H53 L]	0.0011
FIHYDGSNKYYADSVKG [Y61 H52 H]	0.000407
FIRYQGSNKYYADSVKG [Y61 H53 Q]	0.000792
FIRYDRSNKYYADSVKG [Y61 H54 R]	2.5e-05
FIWYDGSNKYYADSVKG [Y61 H52 W]	0.000351
EIRYDGSNKYYADSVKG [Y61 H50 E]	0.000347
FIRYDQSNKYYADSVKG [Y61 H54 Q]	0.000316
LIRYDGSNKYYADSVKG [Y61 H50 L]	0.00044
FIRYDYSNKYYADSVKG [Y61 H54 Y]	0.000646
NIRYDGSNKYYADSVKG [Y61 H50 N]	0.000344
FIRYDNSNKYYADSVKG [Y61 H54 N]	0.000447
FIRYDVSNKYYADSVKG [Y61 H54 V]	0.000435
FILYDGSNKYYADSVKG [Y61 H52 L]	0.000347
FIRYNGSNKYYADSVKG [Y61 H53 N]	0.000727
FIQYDGSNKYYADSVKG [Y61 H52 Q]	0.000285

Binder	koff [s⁻¹]
FIRYDESNKYYADSVKG [Y61 H54 E]	0.000351
FIRYIGSNKYYADSVKG [Y61 H53 I]	0.000944
HIRYDGSNKYYADSVKG [Y61 H50 H]	0.000309
FIRYDKSNKYYADSVKG [Y61 H54 K]	0.000407
CIRYDGSNKYYADSVKG [Y61 H50 C]	0.000285
FIAYDGSNKYYADSVKG [Y61 H52 A]	0.000171
FIRYEGSNKYYADSVKG [Y61 H53 E]	0.000399
FIYYDGSNKYYADSVKG [Y61 H52 Y]	0.000298
FIGYDGSNKYYADSVKG [Y61 H52 G]	0.000321
FIRYKGSNKYYADSVKG [Y61 H53 K]	0.00158
FIEYDGSNKYYADSVKG [Y61 H52 E]	0.000318
FIRYDSSNKYYADSVKG [Y61 H54 S]	0.000373
FIRYFGSNKYYADSVKG [Y61 H53 F]	0.00169
FIRYDTSNKYYADSVKG [Y61 H54 T]	0.000644
FIVYDGSNKYYADSVKG [Y61 H52 V]	0.000317
FIRYAGSNKYYADSVKG [Y61 H53 A]	0.000404
FIRYYGSNKYYADSVKG [Y61 H53 Y]	0.000611
YIRYDGSNKYYADSVKG [Y61 H50 Y]	0.00023
QIRYDGSNKYYADSVKG [Y61 H50 Q]	0.00042
FIRYDDSNKYYADSVKG [Y61 H54 D]	0.000455
FIRYTGSNKYYADSVKG [Y61 H53 T]	0.0005
FIRYRGSNKYYADSVKG [Y61 H53 R]	0.00167

Target: T1, recombinant human interleukin 12 …
Assay: BIAcore
Remark: another data set of the same source

Binder	koff [s⁻¹]
FTFSSYPMH [Y61 H33 P]	0.0016
FTFGSYGMH [Y61 H30 G]	0.000233
FTFRSYGMH [Y61 H30 R]	0.000245
FTFSNYGMH [Y61 H31 N]	0.000191
FTFISYGMH [Y61 H30 I]	0.000207
FTFSSNGMH [Y61 H32 N]	0.00297
FTFSSYAMH [Y61 H33 A]	0.000273
FTFSSYSMH [Y61 H33 S]	0.000399
FTFYSYGMH [Y61 H30 Y]	0.000319
FTFSSCGMH [Y61 H32 C]	0.00383
FTFSSLGMH [Y61 H32 L]	0.00226
FTFSIYGMH [Y61 H31 I]	0.000334
FTFSSRGMH [Y61 H32 R]	0.00449
FTFSSYNMH [Y61 H33 N]	0.000308
FTFSSHGMH [Y61 H32 H]	0.000461
FTFTSYGMH [Y61 H30 T]	0.00032
FTFSYYGMH [Y61 H31 Y]	0.000398
FTFHSYGMH [Y61 H30 H]	0.000296
FTFWSYGMH [Y61 H30 W]	0.000216
FTFVSYGMH [Y61 H30 V]	0.000399
FTFKSYGMH [Y61 H30 K]	0.000225
FTFSSIGMH [Y61 H32 I]	0.00161
FTFSSTGMH [Y61 H32 T]	0.00148
FTFSSYDMH [Y61 H33 D]	0.00152
